Results published in publication PMC4666614, “Identification of New Regions in HIV-1 gp120 Variable 2 and 3 Loops that Bind to α4β7 Integrin Receptor” (PLoS ONE, 2015).

Molecular target: α4β7 integrin receptor on RPMI8866 cells (human (endogenous in RPMI8866)) (UniProt P13612)
Sequence (P13612 34-1032, chain 1 of 2): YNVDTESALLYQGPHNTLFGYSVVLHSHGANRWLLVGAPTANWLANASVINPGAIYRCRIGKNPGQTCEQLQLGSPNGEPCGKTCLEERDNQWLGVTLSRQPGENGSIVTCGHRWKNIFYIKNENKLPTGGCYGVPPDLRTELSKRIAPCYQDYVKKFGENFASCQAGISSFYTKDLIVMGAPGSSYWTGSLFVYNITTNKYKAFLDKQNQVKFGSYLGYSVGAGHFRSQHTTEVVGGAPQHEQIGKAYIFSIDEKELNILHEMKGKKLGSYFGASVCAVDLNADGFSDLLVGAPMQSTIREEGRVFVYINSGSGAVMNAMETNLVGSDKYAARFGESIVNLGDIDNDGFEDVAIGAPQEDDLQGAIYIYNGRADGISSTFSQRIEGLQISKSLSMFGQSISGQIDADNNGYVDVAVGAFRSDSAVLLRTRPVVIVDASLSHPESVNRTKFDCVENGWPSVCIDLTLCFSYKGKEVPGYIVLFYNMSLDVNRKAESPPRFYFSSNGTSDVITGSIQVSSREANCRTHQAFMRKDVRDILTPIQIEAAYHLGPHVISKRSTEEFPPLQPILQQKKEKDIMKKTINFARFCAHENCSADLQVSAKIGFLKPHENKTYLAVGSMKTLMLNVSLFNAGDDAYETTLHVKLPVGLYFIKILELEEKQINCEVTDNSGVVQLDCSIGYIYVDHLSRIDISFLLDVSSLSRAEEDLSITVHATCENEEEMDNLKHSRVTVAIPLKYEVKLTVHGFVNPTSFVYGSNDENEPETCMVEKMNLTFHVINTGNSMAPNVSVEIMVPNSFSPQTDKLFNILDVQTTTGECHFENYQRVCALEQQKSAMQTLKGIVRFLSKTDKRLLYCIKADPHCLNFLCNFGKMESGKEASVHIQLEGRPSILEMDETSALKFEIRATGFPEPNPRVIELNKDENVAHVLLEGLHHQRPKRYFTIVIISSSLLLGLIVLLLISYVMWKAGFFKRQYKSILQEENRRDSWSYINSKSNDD
Sequence (P26010 20-798, chain 2 of 2, further chain): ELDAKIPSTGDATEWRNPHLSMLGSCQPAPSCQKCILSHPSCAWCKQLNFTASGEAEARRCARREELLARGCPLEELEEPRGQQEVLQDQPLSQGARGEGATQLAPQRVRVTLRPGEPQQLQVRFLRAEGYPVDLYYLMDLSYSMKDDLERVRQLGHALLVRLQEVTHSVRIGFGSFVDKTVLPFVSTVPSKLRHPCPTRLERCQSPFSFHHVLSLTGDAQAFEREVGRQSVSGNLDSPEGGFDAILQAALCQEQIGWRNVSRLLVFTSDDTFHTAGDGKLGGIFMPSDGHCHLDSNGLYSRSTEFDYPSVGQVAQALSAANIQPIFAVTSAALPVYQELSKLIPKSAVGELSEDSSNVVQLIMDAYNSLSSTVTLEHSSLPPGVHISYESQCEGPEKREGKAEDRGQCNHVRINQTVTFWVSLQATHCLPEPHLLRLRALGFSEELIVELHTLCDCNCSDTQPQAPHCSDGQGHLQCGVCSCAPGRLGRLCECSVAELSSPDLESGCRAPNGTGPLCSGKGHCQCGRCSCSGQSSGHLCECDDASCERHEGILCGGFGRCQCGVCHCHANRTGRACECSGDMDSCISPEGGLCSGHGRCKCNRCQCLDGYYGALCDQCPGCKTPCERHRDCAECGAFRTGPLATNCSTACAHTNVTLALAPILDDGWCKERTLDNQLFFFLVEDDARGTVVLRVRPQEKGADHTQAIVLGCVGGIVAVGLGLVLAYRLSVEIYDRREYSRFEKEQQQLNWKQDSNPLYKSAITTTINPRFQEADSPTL

For “HIV-1 envelope protein on 92TH023 virions (primary virus, subtype CRF01_AE) (natural protein)”, the % inhibition of α4β7 binding to MAdCAM-1 at p24 0.75–3 ng/well was 25 to 35%.
